Key:
Settings in all cases: label: 32P
RARγ + RXRαm5 = RARγ + RXRαm5 (UniProt P13631;P19793 P13631:1-454,P19793:198-462, RXRα N-terminal deletion of 198 aa including DNA binding domain); assay: EMSA
Protocol: (§1) In vitro translated receptor protein (1 to 5 μl depending on the translation efficiency) was incubated with the ^32P-labeled oligonucleotides in a 20-μl reaction mixture containing 10 mM hepes buffer, pH 7.9, 50 mM KCl, 1 mM DTT, 2.5 mM MgCl, 10% glycerol, and 1 μg of poly(dI-dC) at 25° C. for 20 minutes. In general, relative low receptor concentration was used to obtain the clear effect of heterodimer formation. The reaction mixture was then loaded on a 5% nondenaturing ployacrylamide gel containing 0.5×TBE (1×TBE=0.089 M Tris-borate, 0.089 M boric acid, and 0.002 M EDTA). To analyze the effect of RXRα or the nuclear proteins on receptor DNA binding activity, RXRα or the cell extracts were preincubated with receptor protein at room temperature for 10 minutes before performing the DNA binding assay. When antibody was used, 1 μl of the antiserum was incubated with the specific translation products at room temperature for 45 minutes before performing the experiments described above.

TRα/RXRαm3 = TRα/RXRαm3 (UniProt P10827-2;P19793 P10827-2:1-410,P19793:28-462, RXRα N-terminal deletion of 28 aa); assay: EMSA
Chain of TRα/RXRαm3 (P19793 29-462, stated change not applied, one chain of several): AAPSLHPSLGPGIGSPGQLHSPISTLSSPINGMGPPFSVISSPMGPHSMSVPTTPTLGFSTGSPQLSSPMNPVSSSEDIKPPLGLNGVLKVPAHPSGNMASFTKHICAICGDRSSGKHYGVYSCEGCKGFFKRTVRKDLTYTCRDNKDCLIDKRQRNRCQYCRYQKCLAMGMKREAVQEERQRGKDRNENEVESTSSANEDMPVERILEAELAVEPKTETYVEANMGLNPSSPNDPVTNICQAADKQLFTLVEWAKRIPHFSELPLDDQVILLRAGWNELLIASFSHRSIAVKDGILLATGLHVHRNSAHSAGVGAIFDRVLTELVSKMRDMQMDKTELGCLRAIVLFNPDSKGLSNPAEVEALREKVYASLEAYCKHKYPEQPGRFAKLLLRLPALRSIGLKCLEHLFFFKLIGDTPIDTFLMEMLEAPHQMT
Protocol: as §1

RARγ/RXRαm3 = RARγ/RXRαm3 (UniProt P13631;P19793 P13631:1-454,P19793:28-462, RXRα N-terminal deletion of 28 aa); assay: EMSA
Chain of RARγ/RXRαm3 (P19793 29-462, stated change not applied, chain 2 of 2, one chain of several): as the sequence (P19793 29-462, stated change not applied, one chain of several) above
Protocol: as §1

TRα = molecular target: T1, TRα (UniProt P10827-2 P10827-2:1-410); assay: EMSA; monomer complex; 25 C, 50 mM KCl
T1 sequence: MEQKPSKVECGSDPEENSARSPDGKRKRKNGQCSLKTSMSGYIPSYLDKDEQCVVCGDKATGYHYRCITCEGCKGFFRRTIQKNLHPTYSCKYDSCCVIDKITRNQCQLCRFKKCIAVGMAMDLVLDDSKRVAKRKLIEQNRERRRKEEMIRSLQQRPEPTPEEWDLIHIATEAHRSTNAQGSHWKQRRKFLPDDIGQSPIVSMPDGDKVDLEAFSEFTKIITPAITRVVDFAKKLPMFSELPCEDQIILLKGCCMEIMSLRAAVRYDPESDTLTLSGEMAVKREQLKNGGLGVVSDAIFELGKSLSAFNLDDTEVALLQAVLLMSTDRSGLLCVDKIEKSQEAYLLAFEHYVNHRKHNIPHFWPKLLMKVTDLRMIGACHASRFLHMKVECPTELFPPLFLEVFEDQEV
Protocol: (§2) (a) In vitro synthesized TRα, TRβ, RARα, RARβ, RARγ and TRα2 receptor proteins were preincubated either with (+) or without (−) equal amount of in vitro synthesized RXRα protein at room temperature for 10 minutes. Following this preincubation, the reaction mixtures were incubated with ^32p-labelled palindromic TRE (for 1 sequence see FIG. 2a) and analyzed by gel retardation assay as described in Experimental Procedures. […] As a control, equal amounts of TRα and RARα proteins were also mixed and incubated with labelled TRE.
as §1, with “When antibody was used, 1 μl of the antiserum was incubated with the specific translation products at room temperature for 45 minutes before performing the experiments described above.” left out

RARγ = molecular target: T2, RARγ (UniProt P13631 P13631:1-454); assay: EMSA; no detectable complex under conditions used
T2 sequence: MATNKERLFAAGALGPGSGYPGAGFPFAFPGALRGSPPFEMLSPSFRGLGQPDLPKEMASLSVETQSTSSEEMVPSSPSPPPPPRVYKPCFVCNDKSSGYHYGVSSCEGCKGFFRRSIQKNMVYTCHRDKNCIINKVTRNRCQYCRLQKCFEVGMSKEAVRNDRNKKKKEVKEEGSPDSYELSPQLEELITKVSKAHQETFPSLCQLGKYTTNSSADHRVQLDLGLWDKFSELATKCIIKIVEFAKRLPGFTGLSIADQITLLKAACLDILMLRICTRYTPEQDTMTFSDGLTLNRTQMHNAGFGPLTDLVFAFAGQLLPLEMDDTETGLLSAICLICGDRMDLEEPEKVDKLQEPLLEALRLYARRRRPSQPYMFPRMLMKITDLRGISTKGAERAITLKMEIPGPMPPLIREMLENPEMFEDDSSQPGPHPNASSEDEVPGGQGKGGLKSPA
Protocol: as §2, §1

RARα = molecular target: T3, RARα (Homo sapiens, UniProt P10276 P10276:1-462); assay: EMSA; no detectable complex under conditions used
T3 sequence: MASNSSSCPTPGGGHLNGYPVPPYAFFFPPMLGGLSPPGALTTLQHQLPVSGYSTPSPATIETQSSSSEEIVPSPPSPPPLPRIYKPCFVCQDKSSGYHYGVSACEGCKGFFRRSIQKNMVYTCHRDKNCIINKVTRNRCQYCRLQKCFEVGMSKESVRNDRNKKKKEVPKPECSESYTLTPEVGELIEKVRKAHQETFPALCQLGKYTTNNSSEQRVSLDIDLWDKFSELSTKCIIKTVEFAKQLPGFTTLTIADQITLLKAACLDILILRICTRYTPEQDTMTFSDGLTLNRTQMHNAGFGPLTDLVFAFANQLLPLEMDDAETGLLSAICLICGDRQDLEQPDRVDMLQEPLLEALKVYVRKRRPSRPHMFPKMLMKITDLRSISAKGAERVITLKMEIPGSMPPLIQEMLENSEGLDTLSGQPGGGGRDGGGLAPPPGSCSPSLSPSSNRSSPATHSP
Protocol: as §2, §1

RARβ = molecular target: T4, RARβ (UniProt P10826-2 P10826-2:1-448); assay: EMSA; no detectable complex under conditions used
T4 sequence: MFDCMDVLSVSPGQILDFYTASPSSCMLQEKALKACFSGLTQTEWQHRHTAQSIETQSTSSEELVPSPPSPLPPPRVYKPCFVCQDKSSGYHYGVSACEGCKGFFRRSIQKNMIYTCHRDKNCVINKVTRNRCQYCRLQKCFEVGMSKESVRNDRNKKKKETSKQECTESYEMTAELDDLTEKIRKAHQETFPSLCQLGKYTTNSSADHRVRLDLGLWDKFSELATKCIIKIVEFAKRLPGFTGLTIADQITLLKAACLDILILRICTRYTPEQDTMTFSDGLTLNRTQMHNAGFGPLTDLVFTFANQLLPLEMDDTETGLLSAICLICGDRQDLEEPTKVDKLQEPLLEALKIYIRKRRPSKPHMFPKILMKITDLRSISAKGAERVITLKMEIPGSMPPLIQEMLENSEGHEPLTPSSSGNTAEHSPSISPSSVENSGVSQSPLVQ
Protocol: as §2, §1

Chain of RARγ + RXRαm5 (P19793 199-462, stated change not applied, chain 2 of 2, one chain of several): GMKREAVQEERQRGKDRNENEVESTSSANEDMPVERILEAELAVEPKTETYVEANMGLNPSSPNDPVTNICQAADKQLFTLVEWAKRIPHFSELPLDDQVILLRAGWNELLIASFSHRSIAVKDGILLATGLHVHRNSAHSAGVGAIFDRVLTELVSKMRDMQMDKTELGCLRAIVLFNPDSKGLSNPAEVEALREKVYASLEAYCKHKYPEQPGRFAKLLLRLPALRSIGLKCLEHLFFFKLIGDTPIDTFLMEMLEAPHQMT

B1: palindromic TRE (dsDNA)
DNA 1: GATCTCAGGTCATGACCTGAGATC
DNA 2: GATCTCAGGTCATGACCTGAGATC
RARγ + RXRαm5
  binding result: no binding
TRα/RXRαm3
  binding result: binds
RARγ/RXRαm3
  binding result: binds
TRα
  binding result: binds
RARγ
  binding result: no binding
RARα
  binding result: no binding
RARβ
  binding result: no binding

Source: patent US7026125, “Heterodimers of retinoid X receptors (RXRS) and other steroid hormone receptors” (Ligand Pharmaceuticals)
